Paper PMC7954794 (2021)

B1: S. cerevisiae Abp1 (full length; SH3 domain 535-592 mutated) / Hua2 (parent complex)
chain 1: MALEPIDYTTHSREIDAEYLKIVRGSDPDTTWLIISPNAKKEYEPESTGSSFHDFLQLFDETKVQYGLARVSPPGSDVEKIIIIGWCPDSAPLKTRASFAANFAAVANNLFKGYHVQVTARDEDDLDENELLMKISNAAGARYSIQTSSKQQGKASTPPVKKSFTPSKSPAPVSKKEPVKTPSPAPAAKISSRVNDNNDDDDWNEPELKERDFDQAPLKPNQSSYKPIGKIDLQKVIAEEKAKEDPRLVQKPTAAGSKIDPSSDIANLKNESKLKRDSEFNSFLGTTKPPSMTESSLKNDDDKVIKGFRNEKSPAQLWAERKAKQNSGNAETKAEAPKPEVPEDEPEGEPDVKDLKSKFEGLAASEKEEEEMENKFAPPPKKSEPTIISPKPFSKPQEPVKAEEAEQPKTDYKKIGNPLPGMHIEADNEEEPEENDDDWDDDEDEAAQPPLPSRNVASGAPVQKEEPEQEEIAPSLPSRNSIPAPKQEEAPEQAPEEEIEEEAEEAAPQLPSRSSAAPPPPPRRATPEKKPKENPWATAEYDYDAAEDNELTFVENDKIINIEFVDDDWWLGELEKDGSKGLFPSNYVSLGN
chain 2: MQQTKFGKMYLDHDSVVEYSEDEIVEADRITLGYKKRLSMIENQMRHLLEDFSLDVQQIEPILADLQKYYDAFLQLLQKRNKSLQCKRSTHQPVPSPMNSQTSTNAKVNLSGKLMKFQLNSVQKFDEENILRILQNKIEFEHYFQIDKGKKQKVLLLAVYQCLNGPTRLHKVLNIEGIIHNNSIRTILGKQVSSSKWTVFLYDVKLVLLAHRQDVPNLETSKMIVRYGDLFPCALYFKDHTAY

Variants of: B1
Experiment: DHFR protein-fragment complementation in yeast (Abp1-DHFR F[1,2] x partner-DHFR F[3]), deep mutational scanning, second methotrexate selection vs reference; S. cerevisiae, DHFR-PCA selection in liquid with methotrexate at 30 C, two 72 h selections (the score uses the second); reference = the pre-selection culture
For chain 1 L574K, the screen value was 0.584 DMS score: mean over two replicates of log2(f_test/f_ref + 0.5)/ln 2, minus the synonymous-codon median (not a log2 ….
For chain 1 L574V, the screen value was -1.03 DMS score: mean over two replicates of log2(f_test/f_ref + 0.5)/ln 2, minus the synonymous-codon median (not a log2 ….
In the case of chain 1 L574M, the screen value is reported as -0.568 DMS score: mean over two replicates of log2(f_test/f_ref + 0.5)/ln 2, minus the synonymous-codon median (not a log2 ….
chain 1 E575W was tested, and the screen value was -0.949 DMS score: mean over two replicates of log2(f_test/f_ref + 0.5)/ln 2, minus the synonymous-codon median (not a log2 ….
chain 1 E575Q was tested, and the screen value was 0.336 DMS score: mean over two replicates of log2(f_test/f_ref + 0.5)/ln 2, minus the synonymous-codon median (not a log2 ….
In the case of chain 1 E575I, the screen value is reported as -0.328 DMS score: mean over two replicates of log2(f_test/f_ref + 0.5)/ln 2, minus the synonymous-codon median (not a log2 ….
For chain 1 E575V, the screen value was -0.317 DMS score: mean over two replicates of log2(f_test/f_ref + 0.5)/ln 2, minus the synonymous-codon median (not a log2 ….
chain 1 G578R was tested, and the screen value was -0.535 DMS score: mean over two replicates of log2(f_test/f_ref + 0.5)/ln 2, minus the synonymous-codon median (not a log2 ….
With chain 1 G578Q the screen value was -0.153 DMS score: mean over two replicates of log2(f_test/f_ref + 0.5)/ln 2, minus the synonymous-codon median (not a log2 ….
With chain 1 N549H the screen value was 0.106 DMS score: mean over two replicates of log2(f_test/f_ref + 0.5)/ln 2, minus the synonymous-codon median (not a log2 ….
chain 1 N549Y was tested, and the screen value was -1.27 DMS score: mean over two replicates of log2(f_test/f_ref + 0.5)/ln 2, minus the synonymous-codon median (not a log2 ….
chain 1 N549A was tested, and the screen value was 2.13 DMS score: mean over two replicates of log2(f_test/f_ref + 0.5)/ln 2, minus the synonymous-codon median (not a log2 ….
chain 1 N549G was tested, and the screen value was 1.33 DMS score: mean over two replicates of log2(f_test/f_ref + 0.5)/ln 2, minus the synonymous-codon median (not a log2 ….
In the case of chain 1 N549R, the screen value is reported as -1.02 DMS score: mean over two replicates of log2(f_test/f_ref + 0.5)/ln 2, minus the synonymous-codon median (not a log2 ….
For chain 1 W569F, the screen value was 0.62 DMS score: mean over two replicates of log2(f_test/f_ref + 0.5)/ln 2, minus the synonymous-codon median (not a log2 ….
chain 1 V565L was tested, and the screen value was -1.23 DMS score: mean over two replicates of log2(f_test/f_ref + 0.5)/ln 2, minus the synonymous-codon median (not a log2 ….
chain 1 V565D was tested, and the screen value was -0.156 DMS score: mean over two replicates of log2(f_test/f_ref + 0.5)/ln 2, minus the synonymous-codon median (not a log2 ….
In the case of chain 1 V565W, the screen value is reported as 0.964 DMS score: mean over two replicates of log2(f_test/f_ref + 0.5)/ln 2, minus the synonymous-codon median (not a log2 ….
chain 1 V565S was tested, and the screen value was -0.833 DMS score: mean over two replicates of log2(f_test/f_ref + 0.5)/ln 2, minus the synonymous-codon median (not a log2 ….
chain 1 V565Y was tested, and the screen value was -0.425 DMS score: mean over two replicates of log2(f_test/f_ref + 0.5)/ln 2, minus the synonymous-codon median (not a log2 ….
With chain 1 S585H the screen value was -2.79 DMS score: mean over two replicates of log2(f_test/f_ref + 0.5)/ln 2, minus the synonymous-codon median (not a log2 ….
With chain 1 S585V the screen value was -0.716 DMS score: mean over two replicates of log2(f_test/f_ref + 0.5)/ln 2, minus the synonymous-codon median (not a log2 ….
For chain 1 S585K, the screen value was -2.89 DMS score: mean over two replicates of log2(f_test/f_ref + 0.5)/ln 2, minus the synonymous-codon median (not a log2 ….
For chain 1 A546L, the screen value was -0.283 DMS score: mean over two replicates of log2(f_test/f_ref + 0.5)/ln 2, minus the synonymous-codon median (not a log2 ….
For chain 1 A546E, the screen value was 0.502 DMS score: mean over two replicates of log2(f_test/f_ref + 0.5)/ln 2, minus the synonymous-codon median (not a log2 ….
With chain 1 A546W the screen value was -0.986 DMS score: mean over two replicates of log2(f_test/f_ref + 0.5)/ln 2, minus the synonymous-codon median (not a log2 ….
In the case of chain 1 A546I, the screen value is reported as 0.793 DMS score: mean over two replicates of log2(f_test/f_ref + 0.5)/ln 2, minus the synonymous-codon median (not a log2 ….
For chain 1 A546S, the screen value was 0.374 DMS score: mean over two replicates of log2(f_test/f_ref + 0.5)/ln 2, minus the synonymous-codon median (not a log2 ….
In the case of chain 1 A546N, the screen value is reported as -0.272 DMS score: mean over two replicates of log2(f_test/f_ref + 0.5)/ln 2, minus the synonymous-codon median (not a log2 ….
With chain 1 T552A the screen value was -0.173 DMS score: mean over two replicates of log2(f_test/f_ref + 0.5)/ln 2, minus the synonymous-codon median (not a log2 ….
In the case of chain 1 N586D, the screen value is reported as -1.73 DMS score: mean over two replicates of log2(f_test/f_ref + 0.5)/ln 2, minus the synonymous-codon median (not a log2 ….
For chain 1 P535H, the screen value was -0.124 DMS score: mean over two replicates of log2(f_test/f_ref + 0.5)/ln 2, minus the synonymous-codon median (not a log2 ….
For chain 1 P535R, the screen value was 0.0703 DMS score: mean over two replicates of log2(f_test/f_ref + 0.5)/ln 2, minus the synonymous-codon median (not a log2 ….
chain 1 P535A was tested, and the screen value was 1.23 DMS score: mean over two replicates of log2(f_test/f_ref + 0.5)/ln 2, minus the synonymous-codon median (not a log2 ….
In the case of chain 1 P535Q, the screen value is reported as 1.11 DMS score: mean over two replicates of log2(f_test/f_ref + 0.5)/ln 2, minus the synonymous-codon median (not a log2 ….
With chain 1 P535T the screen value was 0.611 DMS score: mean over two replicates of log2(f_test/f_ref + 0.5)/ln 2, minus the synonymous-codon median (not a log2 ….
chain 1 P535W was tested, and the screen value was 0.493 DMS score: mean over two replicates of log2(f_test/f_ref + 0.5)/ln 2, minus the synonymous-codon median (not a log2 ….
For chain 1 P535M, the screen value was 1.02 DMS score: mean over two replicates of log2(f_test/f_ref + 0.5)/ln 2, minus the synonymous-codon median (not a log2 ….
chain 1 P535I was tested, and the screen value was 1.56 DMS score: mean over two replicates of log2(f_test/f_ref + 0.5)/ln 2, minus the synonymous-codon median (not a log2 ….
chain 1 E555N was tested, and the screen value was -0.276 DMS score: mean over two replicates of log2(f_test/f_ref + 0.5)/ln 2, minus the synonymous-codon median (not a log2 ….
In the case of chain 1 E555P, the screen value is reported as -0.507 DMS score: mean over two replicates of log2(f_test/f_ref + 0.5)/ln 2, minus the synonymous-codon median (not a log2 ….
chain 1 E555Q was tested, and the screen value was 0.0961 DMS score: mean over two replicates of log2(f_test/f_ref + 0.5)/ln 2, minus the synonymous-codon median (not a log2 ….
In the case of chain 1 E555R, the screen value is reported as 0.193 DMS score: mean over two replicates of log2(f_test/f_ref + 0.5)/ln 2, minus the synonymous-codon median (not a log2 ….
chain 1 E555I was tested, and the screen value was 0.585 DMS score: mean over two replicates of log2(f_test/f_ref + 0.5)/ln 2, minus the synonymous-codon median (not a log2 ….
For chain 1 E555H, the screen value was -0.509 DMS score: mean over two replicates of log2(f_test/f_ref + 0.5)/ln 2, minus the synonymous-codon median (not a log2 ….
For chain 1 D568G, the screen value was -2.49 DMS score: mean over two replicates of log2(f_test/f_ref + 0.5)/ln 2, minus the synonymous-codon median (not a log2 ….
For chain 1 D568A, the screen value was -1.81 DMS score: mean over two replicates of log2(f_test/f_ref + 0.5)/ln 2, minus the synonymous-codon median (not a log2 ….
In the case of chain 1 D568F, the screen value is reported as -2.94 DMS score: mean over two replicates of log2(f_test/f_ref + 0.5)/ln 2, minus the synonymous-codon median (not a log2 ….
chain 1 D548R was tested, and the screen value was -1.06 DMS score: mean over two replicates of log2(f_test/f_ref + 0.5)/ln 2, minus the synonymous-codon median (not a log2 ….
For chain 1 D548V, the screen value was 0.053 DMS score: mean over two replicates of log2(f_test/f_ref + 0.5)/ln 2, minus the synonymous-codon median (not a log2 ….
For chain 1 D548E, the screen value was -0.357 DMS score: mean over two replicates of log2(f_test/f_ref + 0.5)/ln 2, minus the synonymous-codon median (not a log2 ….
In the case of chain 1 D548F, the screen value is reported as -0.0924 DMS score: mean over two replicates of log2(f_test/f_ref + 0.5)/ln 2, minus the synonymous-codon median (not a log2 ….
In the case of chain 1 D548K, the screen value is reported as -0.245 DMS score: mean over two replicates of log2(f_test/f_ref + 0.5)/ln 2, minus the synonymous-codon median (not a log2 ….
chain 1 D548A was tested, and the screen value was 0.159 DMS score: mean over two replicates of log2(f_test/f_ref + 0.5)/ln 2, minus the synonymous-codon median (not a log2 ….
chain 1 A545Q was tested, and the screen value was 0.22 DMS score: mean over two replicates of log2(f_test/f_ref + 0.5)/ln 2, minus the synonymous-codon median (not a log2 ….
In the case of chain 1 A545R, the screen value is reported as -0.103 DMS score: mean over two replicates of log2(f_test/f_ref + 0.5)/ln 2, minus the synonymous-codon median (not a log2 ….
For chain 1 A545T, the screen value was -0.0243 DMS score: mean over two replicates of log2(f_test/f_ref + 0.5)/ln 2, minus the synonymous-codon median (not a log2 ….
For chain 1 I562V, the screen value was 0.21 DMS score: mean over two replicates of log2(f_test/f_ref + 0.5)/ln 2, minus the synonymous-codon median (not a log2 ….
chain 1 E563A was tested, and the screen value was -1.08 DMS score: mean over two replicates of log2(f_test/f_ref + 0.5)/ln 2, minus the synonymous-codon median (not a log2 ….
In the case of chain 1 E563D, the screen value is reported as 0.0054 DMS score: mean over two replicates of log2(f_test/f_ref + 0.5)/ln 2, minus the synonymous-codon median (not a log2 ….
With chain 1 E563V the screen value was -0.477 DMS score: mean over two replicates of log2(f_test/f_ref + 0.5)/ln 2, minus the synonymous-codon median (not a log2 ….
With chain 1 E563T the screen value was -1.2 DMS score: mean over two replicates of log2(f_test/f_ref + 0.5)/ln 2, minus the synonymous-codon median (not a log2 ….
In the case of chain 1 A539C, the screen value is reported as -0.17 DMS score: mean over two replicates of log2(f_test/f_ref + 0.5)/ln 2, minus the synonymous-codon median (not a log2 ….
In the case of chain 1 N561K, the screen value is reported as -0.913 DMS score: mean over two replicates of log2(f_test/f_ref + 0.5)/ln 2, minus the synonymous-codon median (not a log2 ….
For chain 1 L582Y, the screen value was 0.369 DMS score: mean over two replicates of log2(f_test/f_ref + 0.5)/ln 2, minus the synonymous-codon median (not a log2 ….
With chain 1 L582W the screen value was 0.141 DMS score: mean over two replicates of log2(f_test/f_ref + 0.5)/ln 2, minus the synonymous-codon median (not a log2 ….
chain 1 N592T was tested, and the screen value was 0.35 DMS score: mean over two replicates of log2(f_test/f_ref + 0.5)/ln 2, minus the synonymous-codon median (not a log2 ….
In the case of chain 1 N592M, the screen value is reported as 0.019 DMS score: mean over two replicates of log2(f_test/f_ref + 0.5)/ln 2, minus the synonymous-codon median (not a log2 ….
chain 1 N592F was tested, and the screen value was 0.212 DMS score: mean over two replicates of log2(f_test/f_ref + 0.5)/ln 2, minus the synonymous-codon median (not a log2 ….
With chain 1 N592Q the screen value was 0.855 DMS score: mean over two replicates of log2(f_test/f_ref + 0.5)/ln 2, minus the synonymous-codon median (not a log2 ….
With chain 1 N592D the screen value was -0.398 DMS score: mean over two replicates of log2(f_test/f_ref + 0.5)/ln 2, minus the synonymous-codon median (not a log2 ….
For chain 1 D542P, the screen value was 0.905 DMS score: mean over two replicates of log2(f_test/f_ref + 0.5)/ln 2, minus the synonymous-codon median (not a log2 ….
For chain 1 D542A, the screen value was 0.327 DMS score: mean over two replicates of log2(f_test/f_ref + 0.5)/ln 2, minus the synonymous-codon median (not a log2 ….
With chain 1 D542E the screen value was 0.0251 DMS score: mean over two replicates of log2(f_test/f_ref + 0.5)/ln 2, minus the synonymous-codon median (not a log2 ….
With chain 1 D542S the screen value was 0.456 DMS score: mean over two replicates of log2(f_test/f_ref + 0.5)/ln 2, minus the synonymous-codon median (not a log2 ….
